The values that follow are results of earlier work, collected in publication PMC9221339.

The target in the data set is IGF-II (Homo sapiens) (UniProt P01344).
IGF-II (Homo sapiens), sequence (P01344 25-91): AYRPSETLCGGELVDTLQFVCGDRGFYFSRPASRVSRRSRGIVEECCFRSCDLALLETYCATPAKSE

IGF-1R, sequence (P08069 31-736): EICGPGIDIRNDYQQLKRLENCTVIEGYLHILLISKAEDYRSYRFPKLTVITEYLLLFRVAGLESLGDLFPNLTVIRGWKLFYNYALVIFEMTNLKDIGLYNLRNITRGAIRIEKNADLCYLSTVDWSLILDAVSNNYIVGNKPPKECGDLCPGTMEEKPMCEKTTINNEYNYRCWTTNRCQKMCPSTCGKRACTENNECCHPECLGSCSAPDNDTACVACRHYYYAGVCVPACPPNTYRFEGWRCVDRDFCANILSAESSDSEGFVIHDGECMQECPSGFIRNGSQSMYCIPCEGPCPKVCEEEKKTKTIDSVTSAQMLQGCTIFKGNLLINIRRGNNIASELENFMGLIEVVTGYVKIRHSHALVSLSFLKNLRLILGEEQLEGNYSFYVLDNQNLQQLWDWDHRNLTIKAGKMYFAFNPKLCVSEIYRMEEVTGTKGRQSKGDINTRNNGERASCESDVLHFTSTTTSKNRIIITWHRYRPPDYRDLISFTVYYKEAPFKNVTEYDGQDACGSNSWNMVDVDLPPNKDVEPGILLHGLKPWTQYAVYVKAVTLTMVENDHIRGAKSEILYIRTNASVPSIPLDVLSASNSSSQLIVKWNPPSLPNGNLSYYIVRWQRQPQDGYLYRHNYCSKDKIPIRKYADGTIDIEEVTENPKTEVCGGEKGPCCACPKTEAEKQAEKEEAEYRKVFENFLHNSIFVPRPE
IGF-1R, sequence (P08069 741-935): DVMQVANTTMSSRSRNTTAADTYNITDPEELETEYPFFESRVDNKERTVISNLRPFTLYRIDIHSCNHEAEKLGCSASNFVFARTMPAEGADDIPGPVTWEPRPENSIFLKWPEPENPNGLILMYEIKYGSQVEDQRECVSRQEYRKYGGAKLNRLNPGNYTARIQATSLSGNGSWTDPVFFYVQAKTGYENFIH

As usually defined, the Kd is a measure of binding affinity in units of concentration. For IGF-1R (from UniProt P08069), the dissociation constant Kd is 3 nM.
